In the test the target is HBV envelope proteins (HBs; L, M and S forms) on HBV virions and subviral particles (hepatitis B virus) (UniProt P03138). In words: co-IP; 50 µg apoE mAb23 or anti-HBs coupled to protein G agarose, mixed with 10 µL CsCl-purified HBV (fraction 7) at 4 °C overnight; HBcAg detected by WB and HBV DNA by qPCR (input = 100%); normal mouse IgG as control. Background: Quantitative PCR measures a nucleic acid by following its amplification.

As for “HBV core protein (from UniProt P03146 1-183) (natural protein)”, the percent of HBV precipitated through HBs (HBV DNA by qPCR) is greater than 95%.
